From PMC7498065 (2020)

B1: PGT121-K149 fusion protein (Fab)
chain 1: QMQLQESGPGLVKPSETLSLTCSVSGASISDSYWSWIRRSPGKGLEWIGYVHKSGDTNYSPSLKSRVNLSLDTSKNQVSLSLVAATAADSGKYYCARTLHGRRIYGSENLYFQGSCPDGFSYRSWDDFCCPMVGRCLAPRNGSENLYFQGSEWFTYFYMDVWGNGTQVTVSS
chain 2: QSVLTQPPDISVAPGETARISCGEKSLGSRAVQWYQHRAGQAPSLIIYNNQDRPSGIPERFSGSPDSPFGTTATLTITSVEAGDEADYYCHIWDSRVPTKWVFGGGTTLTVL
B2: PGT121-K136 fusion protein (Fab)
chain 1: QMQLQESGPGLVKPSETLSLTCSVSGASISDSYWSWIRRSPGKGLEWIGYVHKSGDTNYSPSLKSRVNLSLDTSKNQVSLSLVAATAADSGKYYCARTLHGRRIYGSENLYFQGTCPDNYREVDGCDPYDCCLTTWCTNSYCTRYIENLYFQGSEWFTYFYMDVWGNGTQVTVSS
chain 2: B1 chain 2

Target: Complement component C5 (human, UniProt P01031)
Sequence (P01031 19-673, chain 1 of 2): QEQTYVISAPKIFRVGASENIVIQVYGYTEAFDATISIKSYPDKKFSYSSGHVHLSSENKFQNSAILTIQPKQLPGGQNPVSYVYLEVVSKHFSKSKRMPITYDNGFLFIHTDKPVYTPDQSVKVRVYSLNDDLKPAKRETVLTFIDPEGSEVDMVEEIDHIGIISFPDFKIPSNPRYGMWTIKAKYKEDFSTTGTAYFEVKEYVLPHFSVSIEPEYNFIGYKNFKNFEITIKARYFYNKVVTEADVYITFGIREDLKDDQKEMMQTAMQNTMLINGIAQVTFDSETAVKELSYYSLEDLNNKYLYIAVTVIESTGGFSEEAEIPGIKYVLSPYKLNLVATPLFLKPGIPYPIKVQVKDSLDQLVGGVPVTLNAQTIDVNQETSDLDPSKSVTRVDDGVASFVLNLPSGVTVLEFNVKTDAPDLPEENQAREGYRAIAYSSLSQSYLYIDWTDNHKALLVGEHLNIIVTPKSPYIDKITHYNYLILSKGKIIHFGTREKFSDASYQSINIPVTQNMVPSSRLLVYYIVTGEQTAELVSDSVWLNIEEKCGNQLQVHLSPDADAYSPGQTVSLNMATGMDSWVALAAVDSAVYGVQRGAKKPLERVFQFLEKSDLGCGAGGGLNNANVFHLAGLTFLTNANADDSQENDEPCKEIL
Sequence (P01031 678-1676, chain 2 of 2): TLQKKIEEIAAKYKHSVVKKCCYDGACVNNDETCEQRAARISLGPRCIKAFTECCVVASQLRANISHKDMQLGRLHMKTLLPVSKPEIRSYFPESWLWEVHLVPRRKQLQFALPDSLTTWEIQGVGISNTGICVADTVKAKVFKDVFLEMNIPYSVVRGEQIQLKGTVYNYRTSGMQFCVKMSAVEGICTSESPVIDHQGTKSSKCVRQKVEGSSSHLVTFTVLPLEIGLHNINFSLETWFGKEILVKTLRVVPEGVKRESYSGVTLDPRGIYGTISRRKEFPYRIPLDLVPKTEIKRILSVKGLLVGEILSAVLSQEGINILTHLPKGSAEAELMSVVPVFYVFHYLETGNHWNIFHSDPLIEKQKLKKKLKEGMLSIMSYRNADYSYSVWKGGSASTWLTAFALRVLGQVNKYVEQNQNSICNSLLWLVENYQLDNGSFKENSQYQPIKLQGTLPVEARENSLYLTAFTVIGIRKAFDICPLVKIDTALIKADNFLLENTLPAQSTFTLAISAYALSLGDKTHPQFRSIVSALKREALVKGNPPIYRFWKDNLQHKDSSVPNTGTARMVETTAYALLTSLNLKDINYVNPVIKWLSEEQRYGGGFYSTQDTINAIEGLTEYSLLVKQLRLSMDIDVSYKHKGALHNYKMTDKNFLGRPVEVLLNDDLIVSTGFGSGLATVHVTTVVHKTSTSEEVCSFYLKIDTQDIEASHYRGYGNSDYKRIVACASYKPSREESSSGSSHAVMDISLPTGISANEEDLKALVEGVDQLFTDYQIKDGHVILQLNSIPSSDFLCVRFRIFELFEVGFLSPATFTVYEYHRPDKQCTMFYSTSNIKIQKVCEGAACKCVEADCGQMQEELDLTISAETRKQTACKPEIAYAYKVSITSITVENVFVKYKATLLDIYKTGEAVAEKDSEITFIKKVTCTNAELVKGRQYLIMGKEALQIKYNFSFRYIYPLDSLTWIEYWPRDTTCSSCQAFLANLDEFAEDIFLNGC
Test: SPR

Binder | Kd [nM]
B1 | 517
B2 | < 2.2
